T1: PYR1 (Arabidopsis thaliana, UniProt O49686)
T1 construct: expressed in transfected cells; host or cells: S. cerevisiae strain Y190
T1 sequence (O49686 1-191): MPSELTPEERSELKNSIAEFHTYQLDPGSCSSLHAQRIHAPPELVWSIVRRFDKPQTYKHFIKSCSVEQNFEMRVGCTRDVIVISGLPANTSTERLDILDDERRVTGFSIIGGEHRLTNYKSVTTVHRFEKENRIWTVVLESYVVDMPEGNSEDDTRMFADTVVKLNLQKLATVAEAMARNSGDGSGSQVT


Legend:
HAB1 = assay: Yeast two hybrid of pBD-PYR1 site saturation mutants with pACT-HAB1 on 10 μM ABA, β-galactosidase staining; format: cell-based, Arabidopsis; parameters: key: x: Mutations in PYR1 that disrupt ABA-induced binding to PYR1 to HAB1; settings: S. cerevisiae Y190, 10 μM ABA; dead = lack of visible staining in comparison to wild type control
In short: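 S. cerevisiae Y190 co-expressing GAL4-DNA-binding-domain–PYR1 mutants and GAL4-activation-domain–HAB1 were spotted on SD (-Leu, -Trp) agar with 10 μM (+)-ABA for 2 days at 30° C. Colonies were chloroform-lysed and stained for β-galactosidase. Mutants lacking visible staining relative to wild type were scored as non-binding.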

PYR1 = molecular target: T1, PYR1; assay: Yeast two hybrid of pACT-HAB1 site saturation mutants with pBD-PYR1 on 10 μM ABA, β-galactosidase staining; format: cell-based; parameters: key: x: Mutations in HAB1 that disrupt HAB1 interaction with PYR1; settings: S. cerevisiae Y190, 10 μM ABA; dead = lack of detectable staining in comparison to wild type control
From the text: To systematically define mutations in HAB1 that disrupt its binding to PYR1, we used site saturation mutagenesis to create a collection all possible single amino acid substitutions in 20 residues lining the PYR1 binding interface, and then assayed the ability of each mutant to bind PYR1 using the yeast two hybrid assay described above. We targeted the following residues for mutagenesis: R199, 5200, E201, E203, H245, G246, G247, S322, E323, T324, K381, I383, Q384, W385, Q386, R389, F391, G392, V393, and Y404. To create the collection of mutations, mutagenic “NNK” site directed mutagenesis primers were synthesized for each of the 20 positions and the primers used in QuickChange site-directed mutagenesis reactions using a previously described pACT-HAB1 template (Park et al., 2009). We note that this clone uses a HAB1 cDNA lacking its three N-terminal amino acids. The reaction products were digested with DpnI, and transformed into competent Escherichia coli DH5α cells and plasmid DNA for 96 colonies per site was isolated using Bioneer AccuPrep® Plasmid Mini Extraction Kit (Alameda, Calif.) and sequenced to identify mutants. This process identified most of the 19 desired mutations per target site; the remaining mutations were constructed directly using specific mutagenic primers. To interrogate the effects of the mutations on PYR1-HAB1 interactions, the mutant clones were individually transformed into S. cerevisiae strain Y190 containing pBD-PYR1 (Park et al., 2009). Yeast transformants were selected for the presence of plasmids on selective SD (-Leu,-Trp) plates and then spotted onto SD (-Leu,-Trp) agar plates supplemented with 10 μM ABA. After incubating the test plates at 30° C. for two days, the colonies were lysed with chloroform and stained to reveal […] expression levels. “Dead” mutants were defined by lack of detectable staining in comparison to a wild type pBD-PYR1/pACT-HAB1 control. This screening effort defined 163 mutations that disrupt the ABA-induced PYR1/HAB1 interaction (Table 2).

Molecule | Mutations in PYR1 that disrupt ABA-induced binding to PYR1 to HAB1 (HAB1) | Mutations in HAB1 that disrupt HAB1 interaction with PYR1 (PYR1)
S85E: PYR1 mutant (protein, UniProt O49686 1-191, looked up, variant S85E) Abscisic acid receptor PYR1: MPSELTPEERSELKNSIAEFHTYQLDPGSCSSLHAQRIHAPPELVWSIVRRFDKPQTYKHFIKSCSVEQNFEMRVGCTRDVIVIEGLPANTSTERLDILDDERRVTGFSIIGGEHRLTNYKSVTTVHRFEKENRIWTVVLESYVVDMPEGNSEDDTRMFADTVVKLNLQKLATVAEAMARNSGDGSGSQVT | x | –
S85F: PYR1 mutant (protein, UniProt O49686 1-191, looked up, variant S85F) Abscisic acid receptor PYR1: MPSELTPEERSELKNSIAEFHTYQLDPGSCSSLHAQRIHAPPELVWSIVRRFDKPQTYKHFIKSCSVEQNFEMRVGCTRDVIVIFGLPANTSTERLDILDDERRVTGFSIIGGEHRLTNYKSVTTVHRFEKENRIWTVVLESYVVDMPEGNSEDDTRMFADTVVKLNLQKLATVAEAMARNSGDGSGSQVT | x | –
S85H: PYR1 mutant (protein, UniProt O49686 1-191, looked up, variant S85H) Abscisic acid receptor PYR1: MPSELTPEERSELKNSIAEFHTYQLDPGSCSSLHAQRIHAPPELVWSIVRRFDKPQTYKHFIKSCSVEQNFEMRVGCTRDVIVIHGLPANTSTERLDILDDERRVTGFSIIGGEHRLTNYKSVTTVHRFEKENRIWTVVLESYVVDMPEGNSEDDTRMFADTVVKLNLQKLATVAEAMARNSGDGSGSQVT | x | –
S85G: PYR1 mutant (protein, UniProt O49686 1-191, looked up, variant S85G) Abscisic acid receptor PYR1: MPSELTPEERSELKNSIAEFHTYQLDPGSCSSLHAQRIHAPPELVWSIVRRFDKPQTYKHFIKSCSVEQNFEMRVGCTRDVIVIGGLPANTSTERLDILDDERRVTGFSIIGGEHRLTNYKSVTTVHRFEKENRIWTVVLESYVVDMPEGNSEDDTRMFADTVVKLNLQKLATVAEAMARNSGDGSGSQVT | x | –
S85I: PYR1 mutant (protein, UniProt O49686 1-191, looked up, variant S85I) Abscisic acid receptor PYR1: MPSELTPEERSELKNSIAEFHTYQLDPGSCSSLHAQRIHAPPELVWSIVRRFDKPQTYKHFIKSCSVEQNFEMRVGCTRDVIVIIGLPANTSTERLDILDDERRVTGFSIIGGEHRLTNYKSVTTVHRFEKENRIWTVVLESYVVDMPEGNSEDDTRMFADTVVKLNLQKLATVAEAMARNSGDGSGSQVT | x | –
S85K: PYR1 mutant (protein, UniProt O49686 1-191, looked up, variant S85K) Abscisic acid receptor PYR1: MPSELTPEERSELKNSIAEFHTYQLDPGSCSSLHAQRIHAPPELVWSIVRRFDKPQTYKHFIKSCSVEQNFEMRVGCTRDVIVIKGLPANTSTERLDILDDERRVTGFSIIGGEHRLTNYKSVTTVHRFEKENRIWTVVLESYVVDMPEGNSEDDTRMFADTVVKLNLQKLATVAEAMARNSGDGSGSQVT | x | –

Continued, values first:

Mutations in PYR1 that disrupt ABA-induced binding to PYR1 to HAB1 (HAB1) | Mutations in HAB1 that disrupt HAB1 interaction with PYR1 (PYR1) | Molecule
– | x | E323L: HAB1 mutant (protein, UniProt Q9CAJ0 23-511, looked up, variant E323L) Protein phosphatase 2C 16: SPVEITQLKNVTDAADLLSDSENQSFCNGGTECTMEDVSELEEVGEQDLLKTLSDTRSGSSNVFDEDDVLSVVEDNSAVISEGLLVVDAGSELSLSNTAMEIDNGRVLATAIIVGESSIEQVPTAEVLIAGVNQDTNTSEVVIRLPDENSNHLVKGRSVYELDCIPLWGTVSIQGNRSEMEDAFAVSPHFLKLPIKMLMGDHEGMSPSLTHLTGHFFGVYDGHGGHKVADYCRDRLHFALAEEIERIKDELCKRNTGEGRQVQWDKVFTSCFLTVDGEIEGKIGRAVVGSSDKVLEAVASLTVGSTAVVALVCSSHIVVSNCGDSRAVLFRGKEAMPLSVDHKPDREDEYARIENAGGKVIQWQGARVFGVLAMSRSIGDRYLKPYVIPEPEVTFMPRSREDECLILASDGLWDVMNNQEVCEIARRRILMWHKKNGAPPLAERGKGIDPACQAAADYLSMLALQKGSKDNISIIVIDLKAQRKFKTRT
– | x | I383Q: HAB1 mutant (protein, UniProt Q9CAJ0 23-511, looked up, variant I383Q) Protein phosphatase 2C 16: SPVEITQLKNVTDAADLLSDSENQSFCNGGTECTMEDVSELEEVGEQDLLKTLSDTRSGSSNVFDEDDVLSVVEDNSAVISEGLLVVDAGSELSLSNTAMEIDNGRVLATAIIVGESSIEQVPTAEVLIAGVNQDTNTSEVVIRLPDENSNHLVKGRSVYELDCIPLWGTVSIQGNRSEMEDAFAVSPHFLKLPIKMLMGDHEGMSPSLTHLTGHFFGVYDGHGGHKVADYCRDRLHFALAEEIERIKDELCKRNTGEGRQVQWDKVFTSCFLTVDGEIEGKIGRAVVGSSDKVLEAVASETVGSTAVVALVCSSHIVVSNCGDSRAVLFRGKEAMPLSVDHKPDREDEYARIENAGGKVQQWQGARVFGVLAMSRSIGDRYLKPYVIPEPEVTFMPRSREDECLILASDGLWDVMNNQEVCEIARRRILMWHKKNGAPPLAERGKGIDPACQAAADYLSMLALQKGSKDNISIIVIDLKAQRKFKTRT
– | x | K381W: HAB1 mutant (protein, UniProt Q9CAJ0 23-511, looked up, variant K381W) Protein phosphatase 2C 16: SPVEITQLKNVTDAADLLSDSENQSFCNGGTECTMEDVSELEEVGEQDLLKTLSDTRSGSSNVFDEDDVLSVVEDNSAVISEGLLVVDAGSELSLSNTAMEIDNGRVLATAIIVGESSIEQVPTAEVLIAGVNQDTNTSEVVIRLPDENSNHLVKGRSVYELDCIPLWGTVSIQGNRSEMEDAFAVSPHFLKLPIKMLMGDHEGMSPSLTHLTGHFFGVYDGHGGHKVADYCRDRLHFALAEEIERIKDELCKRNTGEGRQVQWDKVFTSCFLTVDGEIEGKIGRAVVGSSDKVLEAVASETVGSTAVVALVCSSHIVVSNCGDSRAVLFRGKEAMPLSVDHKPDREDEYARIENAGGWVIQWQGARVFGVLAMSRSIGDRYLKPYVIPEPEVTFMPRSREDECLILASDGLWDVMNNQEVCEIARRRILMWHKKNGAPPLAERGKGIDPACQAAADYLSMLALQKGSKDNISIIVIDLKAQRKFKTRT
– | x | I383N: HAB1 mutant (protein, UniProt Q9CAJ0 23-511, looked up, variant I383N) Protein phosphatase 2C 16: SPVEITQLKNVTDAADLLSDSENQSFCNGGTECTMEDVSELEEVGEQDLLKTLSDTRSGSSNVFDEDDVLSVVEDNSAVISEGLLVVDAGSELSLSNTAMEIDNGRVLATAIIVGESSIEQVPTAEVLIAGVNQDTNTSEVVIRLPDENSNHLVKGRSVYELDCIPLWGTVSIQGNRSEMEDAFAVSPHFLKLPIKMLMGDHEGMSPSLTHLTGHFFGVYDGHGGHKVADYCRDRLHFALAEEIERIKDELCKRNTGEGRQVQWDKVFTSCFLTVDGEIEGKIGRAVVGSSDKVLEAVASETVGSTAVVALVCSSHIVVSNCGDSRAVLFRGKEAMPLSVDHKPDREDEYARIENAGGKVNQWQGARVFGVLAMSRSIGDRYLKPYVIPEPEVTFMPRSREDECLILASDGLWDVMNNQEVCEIARRRILMWHKKNGAPPLAERGKGIDPACQAAADYLSMLALQKGSKDNISIIVIDLKAQRKFKTRT
– | x | I383P: HAB1 mutant (protein, UniProt Q9CAJ0 23-511, looked up, variant I383P) Protein phosphatase 2C 16: SPVEITQLKNVTDAADLLSDSENQSFCNGGTECTMEDVSELEEVGEQDLLKTLSDTRSGSSNVFDEDDVLSVVEDNSAVISEGLLVVDAGSELSLSNTAMEIDNGRVLATAIIVGESSIEQVPTAEVLIAGVNQDTNTSEVVIRLPDENSNHLVKGRSVYELDCIPLWGTVSIQGNRSEMEDAFAVSPHFLKLPIKMLMGDHEGMSPSLTHLTGHFFGVYDGHGGHKVADYCRDRLHFALAEEIERIKDELCKRNTGEGRQVQWDKVFTSCFLTVDGEIEGKIGRAVVGSSDKVLEAVASETVGSTAVVALVCSSHIVVSNCGDSRAVLFRGKEAMPLSVDHKPDREDEYARIENAGGKVPQWQGARVFGVLAMSRSIGDRYLKPYVIPEPEVTFMPRSREDECLILASDGLWDVMNNQEVCEIARRRILMWHKKNGAPPLAERGKGIDPACQAAADYLSMLALQKGSKDNISIIVIDLKAQRKFKTRT
